For the test, the target named is exportin 4 (XPO4) (UniProt Q9C0E2 1-1151). Put plainly: SPR. (Surface plasmon resonance follows binding to a sensor surface in real time, without labels.)

Consider one molecule from publication PMC8365315 (EBioMedicine, 2021).

Sequence of exportin 4 (XPO4) (Q9C0E2 whole entry): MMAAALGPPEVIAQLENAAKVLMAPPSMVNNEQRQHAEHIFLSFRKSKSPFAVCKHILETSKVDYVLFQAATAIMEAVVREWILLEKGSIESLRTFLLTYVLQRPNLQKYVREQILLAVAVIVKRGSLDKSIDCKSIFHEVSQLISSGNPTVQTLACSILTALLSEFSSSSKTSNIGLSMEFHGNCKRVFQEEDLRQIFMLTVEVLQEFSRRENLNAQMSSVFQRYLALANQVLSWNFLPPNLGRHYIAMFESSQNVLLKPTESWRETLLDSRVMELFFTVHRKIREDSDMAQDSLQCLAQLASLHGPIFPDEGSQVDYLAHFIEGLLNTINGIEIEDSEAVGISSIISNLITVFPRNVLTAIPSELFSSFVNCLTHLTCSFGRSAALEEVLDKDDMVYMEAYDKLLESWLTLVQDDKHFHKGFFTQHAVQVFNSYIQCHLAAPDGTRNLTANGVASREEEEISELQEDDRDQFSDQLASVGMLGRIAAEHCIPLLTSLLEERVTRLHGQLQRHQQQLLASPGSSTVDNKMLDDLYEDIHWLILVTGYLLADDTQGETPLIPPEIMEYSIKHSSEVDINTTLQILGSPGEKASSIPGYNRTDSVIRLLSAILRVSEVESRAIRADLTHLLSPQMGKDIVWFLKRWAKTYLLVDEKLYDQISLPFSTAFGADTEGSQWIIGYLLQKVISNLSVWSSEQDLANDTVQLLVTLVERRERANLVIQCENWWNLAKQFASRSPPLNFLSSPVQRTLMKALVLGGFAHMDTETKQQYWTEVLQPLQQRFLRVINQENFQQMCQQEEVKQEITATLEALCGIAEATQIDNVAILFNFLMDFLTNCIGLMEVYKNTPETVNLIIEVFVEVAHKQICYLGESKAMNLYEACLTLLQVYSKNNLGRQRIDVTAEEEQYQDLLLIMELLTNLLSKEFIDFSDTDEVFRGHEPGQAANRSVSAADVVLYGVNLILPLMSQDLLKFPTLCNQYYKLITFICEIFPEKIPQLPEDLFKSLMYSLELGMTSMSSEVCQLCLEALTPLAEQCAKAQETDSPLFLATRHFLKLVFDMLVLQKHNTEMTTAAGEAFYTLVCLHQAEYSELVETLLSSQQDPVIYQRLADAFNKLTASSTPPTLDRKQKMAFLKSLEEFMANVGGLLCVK

B1: SMAD3 (natural protein, UniProt P84022 1-425, looked up)
chain: MSSILPFTPPIVKRLLGWKKGEQNGQEEKWCEKAVKSLVKKLKKTGQLDELEKAITTQNVNTKCITIPRSLDGRLQVSHRKGLPHVIYCRLWRWPDLHSHHELRAMELCEFAFNMKKDEVCVNPYHYQRVETPVLPPVLVPRHTEIPAEFPPLDDYSHSIPENTNFPAGIEPQSNIPETPPPGYLSEDGETSDHQMNHSMDAGSPNLSPNPMSPAHNNLDLQPVTYCEPAFWCSISYYELNQRVGETFHASQPSMTVDGFTDPSNSERFCLGLLSNVNRNAAVELTRRHIGRGVRLYYIGGEVFAECLSDSAIFVQSPNCNQRYGWHPATVCKIPPGCNLKIFNNQEFAALLAQSVNQGFEAVYQLTRMCTIRMSFVKGWGAEYRRQTVTSTPCWIELHLNGPLQWLDKVLTQMGSPSIRCSSVS
In the case of B1, the affinity, expressed as Kd, was 4.88 nM.
